# Laboratory results: the supplement of paper PMC10567573
# B1: FBXO3 (parent)
# chain: FIDTYSDVGRYIDHYAAIKKAWDD
# Variants of: B1
# Experiment: protein stability index of a GFP-peptide fusion (GPS, HEK-293T) (PSI 1-6); higher = more stable
# Conditions: c terminus: a fixed tail appended
# 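Further: lentivirally expressed fusions sorted by FACS into six bins by GFP to DsRed ratio, PSI derived from sequencing read proportions per bin multiplied by bin number.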
row,Variant,protein stability index
1,FIDTYSDVGRYIDHYAAIKGAWDD,1.81
2,FIDTYSDVGRYIDHYAAIKNAWDD,2.76
3,FIDTYSDVGRYIDHYAAIKEAWDD,2.29
4,FIDTYSDVGRYIDHYAAIKTAWDD,1.61
5,FIDTYSDVGRYIDHYAAIKHAWDD,1.7
6,FIDTYSDVGRYIDHYAAIKMAWDD,2.49
7,FIDTYSDVGRYIDHYAAIKPAWDD,2.15
8,FIDTYSDVGRYIDHYAAIKFAWDD,2.08
9,FIDTYSDVGRYIDHYAAIKQAWDD,1.68
10,FIDTYSDVGRYIDHYAAIKDAWDD,1.74
11,FIDTYSDVGRYIDHYAAIKLAWDD,1.54
12,FIDTYSDVGRYIDHYAAIKYAWDD,2.08
13,FIDTYSDVGRYIDHYAAIKRAWDD,1.67
14,FIDTYSDVGRYIDHYAAIKCAWDD,2.19
15,FIDTYSDVGRYIDHYAAIKAAWDD,2.16
16,FIDTYSDVGRYIDHYAAIKSAWDD,1.54
17,FIDTYSDVGRYIDHYAAIKVAWDD,1.44
18,FIDTYSDVGRYIDHYAAIKIAWDD,2.59
19,FIDTYSDVGRYIDHYAAIKWAWDD,2.86
20,FIDTYSDVGRYIDHYAAIQKAWDD,2.07
21,FIDTYSDVGRYIDHYAAISKAWDD,1.02
22,FIDTYSDVGRYIDHYAAIVKAWDD,1.98
23,FIDTYSDVGRYIDHYAAIHKAWDD,2.68
24,FIDTYSDVGRYIDHYAAIMKAWDD,3.18

row,Variant,protein stability index
1,FIDTYSDVGRYIDHYAAIIKAWDD,2.39
2,FIDTYSDVGRYIDHYAAIFKAWDD,1.84
3,FIDTYSDVGRYIDHYAAIDKAWDD,2.46
4,FIDTYSDVGRYIDHYAAIWKAWDD,2.34
5,FIDTYSDVGRYIDHYAAIYKAWDD,1.64
6,FIDTYSDVGRYIDHYAAIEKAWDD,1.34
7,FIDTYSDVGRYIDHYAAIAKAWDD,1.37
8,FIDTYSDVGRYIDHYAAILKAWDD,1.92
9,FIDTYSDVGRYIDHYAAIRKAWDD,1.16
10,FIDTYSDVGRYIDHYAAITKAWDD,2.38
11,FIDTYSDVGRYIDHYAAIGKAWDD,1.91
12,FIDTYSDVGRYIDHYAAICKAWDD,1.55
13,FIDTYSDVGRYIDHYAAINKAWDD,1.88
14,FIDTYSDVGRYIDHYAAIPKAWDD,1.74
15,FIDTYSDVGRYIDHYAMIKKAWDD,1.24
16,FIDTYSDVGRYIDHYAYIKKAWDD,2.6
17,FIDTYSDVGRYIDHYAPIKKAWDD,2.17
18,FIDTYSDVGRYIDHYAVIKKAWDD,2.18
19,FIDTYSDVGRYIDHYALIKKAWDD,1.83
20,FIDTYSDVGRYIDHYAQIKKAWDD,1.62
21,FIDTYSDVGRYIDHYANIKKAWDD,1.63
22,FIDTYSDVGRYIDHYARIKKAWDD,1.98
23,FIDTYSDVGRYIDHYATIKKAWDD,1.68
24,FIDTYSDVGRYIDHYAWIKKAWDD,2

row,Variant,protein stability index
1,FIDTYSDVGRYIDHYASIKKAWDD,2.38
2,FIDTYSDVGRYIDHYAAIKKGWDD,3.18
3,FIDTYSDVGRYIDHYAAIKKLWDD,1.72
4,FIDTYSDVGRYIDHYAAIKKMWDD,3.02
5,FIDTYSDVGRYIDHYAAIKKKWDD,1.88
6,FIDTYSDVGRYIDHYAAIKKQWDD,1.82
7,FIDTYSDVGRYIDHYAAIKKDWDD,3.43
8,FIDTYSDVGRYIDHYAAIKKHWDD,1.61
9,FIDTYSDVGRYIDHYAAIKKWWDD,1.7
10,FIDTYSDVGRYIDHYAAIKKIWDD,2.48
11,FIDTYSDVGRYIDHYAAIKKCWDD,1.82
12,FIDTYSDVGRYIDHYAAIKKVWDD,1.22
13,FIDTYSDVGRYIDHYAAIKKTWDD,2.23
14,FIDTYSDVGRYIDHYAAIKKSWDD,2.12
15,FIDTYSDVGRYIDHYAAIKKRWDD,1.96
16,FIDTYSDVGRYIDHYAAIKKYWDD,1.85
17,FIDTYSDVGRYIDHYAAIKKNWDD,2
18,FIDTYSDVGRYIDHYAAIKKPWDD,1.97
19,FIDTYSDVGRYIDHYAAIKKEWDD,1.88
20,FIDTYSDVGRYIDHYAAIKKFWDD,1.96
21,FIDTYSDVGRYIDHYAAIKKAHDD,2.02
22,FIDTYSDVGRYIDHYAAIKKAEDD,2.1
23,FIDTYSDVGRYIDHYAAIKKACDD,1.95
24,FIDTYSDVGRYIDHYAAIKKAGDD,1.85

row,Variant,protein stability index
1,FIDTYSDVGRYIDHYAAIKKADDD,2.05
2,FIDTYSDVGRYIDHYAAIKKAFDD,1.39
3,FIDTYSDVGRYIDHYAAIKKAADD,2.05
4,FIDTYSDVGRYIDHYAAVKKAWDD,2.16
5,FIDTYSDVGRYIDHYAAKKKAWDD,2.41
6,FIDTYSDVGRYIDHYAACKKAWDD,1.94
7,FIDTYSDVGRYIDHYAASKKAWDD,2.13
8,FIDTYSDVGRYIDHYAATKKAWDD,2.24
9,FIDTYSDVGRYIDHYAAAKKAWDD,2.03
10,FIDTYSDVGRYIDHYAAHKKAWDD,2.39
11,FIDTYSDVGRYIDHYAAPKKAWDD,1.96
12,FIDTYSDVGRYIDHYAAGKKAWDD,2.38
13,FIDTYSDVGRYIDHYAAFKKAWDD,2.12
14,FIDTYSDVGRYIDHYAADKKAWDD,1.7
15,FIDTYSDVGRYIDHYAAEKKAWDD,1.97
16,FIDTYSDVGRYIDHYAANKKAWDD,1.46
17,FIDTYSDVGRYIDHYAALKKAWDD,2.11
18,FIDTYSDVGRYIDHYAAWKKAWDD,1.74
19,FIDTYSDVGRYIDHYAARKKAWDD,1.7
20,FIDTYSDVGRYIDHYAAQKKAWDD,1.54
21,FIDTYSDVGRYIDHYAAYKKAWDD,1.31
22,FIDTYSDVGRYIDHYAAMKKAWDD,2.16
